Measurements: the supplement of paper PMC9732359
± gives the uncertainty stated by the source.

Test: protein stability index of a GFP-peptide fusion (yeast GPS) (PSI 1-4); higher = more stable; sorted into four equal gates, so the index is relative within each strain
How it was run: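 Tiled 17-residue peptides from yeast proteins were fused downstream of GFP on a plasmid that also expresses Cherry, and the pooled library was carried in yeast. Mid-log cultures grown in leucine-free medium were sorted into four equal gates by GFP/Cherry fluorescence ratio. Plasmids from each gate were PCR-amplified and Illumina-sequenced, and reads were assigned to strains by barcodes. Each peptide's protein stability index is the sum, over gates, of the gate's read frequency multiplied by its gate number.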

Sequence | protein stability index (doa10∆) | protein stability index (pdr5∆) | protein stability index (san1∆) | protein stability index (ubr1∆)
EEITCALDYLIPPPMPK [MED7] | 1.86 ± 0.083 | 2.73 ± 0.21 | 2.06 ± 0.16 | 2.28 ± 0.071
EEKGWVPVTKLGRLVKA [RPS2] | 3.45 ± 0.086 | 3.44 ± 0.13 | 3.51 ± 0.072 | 3.48 ± 0.072
EELILPNTKDAMSLYHS [PRP8] | 3.18 ± 0.055 | 3.38 ± 0.043 | 3.36 ± 0.04 | 2.8 ± 0.042
EELLLKDLEIRKLEISS [GAL11] | – | 2.31 ± 0.11 | 3.18 ± 0.081 | 1.09 ± 0.12
EENSQGNILDFNLNLPP [REC8] | 3.06 ± 0.11 | 3.5 ± 0.14 | 3.18 ± 0.051 | 3.01 ± 0.079
EEQEEEPDREKIKLLTQ [RPC19] | 2.93 ± 0.25 | 3.24 ± 0.11 | 2.52 ± 0.15 | 2.65 ± 0.23
EEQEKINSAPDFTQEDE [ISW2] | 3.14 ± 0.11 | 3.56 ± 0.088 | 3.39 ± 0.081 | 3.55 ± 0.067
EEQKIVKKVVKEQTEAA [RPL34A] | – | 3.23 ± 0.16 | 3.27 ± 0.061 | 3.13 ± 0.15
EETDEVSSESSDEAIIP [SIR3] | 2.93 ± 0.068 | 2.52 ± 0.056 | 2.73 ± 0.065 | 2.82 ± 0.043
EETNVDIGVLEEYARRL [SMC4] | – | 3.36 ± 0.24 | 3.64 ± 0.072 | 3.48 ± 0.1
EEVMRIALMGQDNKKIY [ESC2] | 2.53 ± 0.07 | 2.72 ± 0.12 | 2.2 ± 0.11 | 2.64 ± 0.051
EFDRRILKKSLMTSHTK [RTT102] | 2.94 ± 0.17 | 2.98 ± 0.092 | 2.4 ± 0.15 | 3.29 ± 0.093
EFIYLTKVLQFAAKQRQ [SNF2] | 1.33 ± 0.19 | 1.28 ± 0.15 | 1.39 ± 0.15 | –
EFNGFSLYQVDPSGSYF [PRE8] | 2.19 ± 0.057 | 2.05 ± 0.08 | 2.1 ± 0.15 | 2.43 ± 0.077
EFTPADPNLSFESSSSL [SSN2] | 3.05 ± 0.17 | 3.09 ± 0.12 | 2.39 ± 0.16 | 2.79 ± 0.15
EFTSKIGFTIKEYENHS [SMC1] | 2.59 ± 0.11 | 3.04 ± 0.061 | 2.84 ± 0.12 | 3.01 ± 0.063
EGDASPFTDITVEGISK [RPB2] | 3.17 ± 0.14 | 2.97 ± 0.17 | 3.08 ± 0.092 | 3.07 ± 0.21
EGDGAKAAISFGAKPEE [YJL041W/NSP1] | 3.21 ± 0.1 | 3 ± 0.087 | 3.43 ± 0.082 | 3.43 ± 0.053
EGEPVNSPNYFVAKLAA [COR1] | 3.31 ± 0.16 | 3.16 ± 0.14 | 3.37 ± 0.13 | 3.14 ± 0.17
EGKYIVDVAKDINVKDL [RPT6] | 3.44 ± 0.12 | 3.21 ± 0.11 | 2.67 ± 0.14 | 3.24 ± 0.093
EGNTVLEKGNNPSVKQG [SWP82] | 3.11 ± 0.067 | 3.12 ± 0.082 | 3.26 ± 0.065 | 2.87 ± 0.064
EGNYRNLNNLKQENAYL [RPB8] | 3.31 ± 0.084 | 3.31 ± 0.085 | 3.27 ± 0.08 | 3.43 ± 0.068
EGQADIDMESDVEDDDK [POP7] | 3.37 ± 0.095 | 3.18 ± 0.11 | 3.3 ± 0.07 | 3.27 ± 0.042
EGRLLDNVQANDPAREK [SNF12] | 2.8 ± 0.11 | 3.21 ± 0.065 | 2.96 ± 0.05 | 3.18 ± 0.042
EGSKSHPFGHALVAGIE [RPL27A] | 2.73 ± 0.061 | 2.83 ± 0.069 | 2.59 ± 0.071 | 2.76 ± 0.047
EHKSQVVLYNYYLGQYY [CSN12] | 2.23 ± 0.12 | 1.81 ± 0.13 | 2.71 ± 0.086 | 2.03 ± 0.055
EIALKGLESLLNIGLGA [YCS4] | 2.65 ± 0.11 | 2.47 ± 0.092 | 3.03 ± 0.13 | 2.77 ± 0.21

Sequence | protein stability index (doa10∆) | protein stability index (pdr5∆) | protein stability index (san1∆) | protein stability index (ubr1∆)
EIDVENHDRINISNNLQ [RPN8] | 3.21 ± 0.061 | 3.26 ± 0.082 | 3.32 ± 0.043 | 3.21 ± 0.054
EIGILDHVDGSSEFVSQ [RRP46] | 1.69 ± 0.067 | 2.01 ± 0.059 | 2.24 ± 0.065 | 2.5 ± 0.064
EIGITQQRIVSAYEASM [RRP4] | 3.04 ± 0.098 | 2.98 ± 0.081 | 2.75 ± 0.12 | 2.85 ± 0.065
EIIFLGAQIVSKQIFTH [ARP9] | 1.22 ± 0.1 | 1.33 ± 0.075 | 1.14 ± 0.14 | 1.25 ± 0.036
EIKKLLATNSLVEEFML [DIS3] | 2.32 ± 0.055 | 1.9 ± 0.052 | 2.54 ± 0.057 | 2.3 ± 0.048
EINLSKIFQTTPEKDLF [YCS4] | 2.72 ± 0.11 | 2.29 ± 0.075 | 1.5 ± 0.091 | 2.7 ± 0.055
EINPFLLGTMAGGAADC [PRE2] | 2.88 ± 0.18 | 3.22 ± 0.12 | 2.75 ± 0.15 | 2.61 ± 0.15
EINSVGNPGLPQYQYQR [ITC1] | 2.66 ± 0.11 | 2.59 ± 0.077 | 2.92 ± 0.057 | 3.16 ± 0.067
EISAAHNKLNITSDALE [SMC3] | 2.64 ± 0.17 | – | 2.58 ± 0.23 | –
EITDAYCFAKNDLFFNN [YMR129W/POM152] | 2.59 ± 0.059 | 2.56 ± 0.063 | 2.22 ± 0.071 | 2.61 ± 0.056
EITSVLSNLHESNKRYR [SNF12] | 3.1 ± 0.085 | 3.05 ± 0.071 | 2.94 ± 0.054 | 3.08 ± 0.052
EIVDTYQEDIFVSESPS [ISW2] | 2.83 ± 0.093 | 2.8 ± 0.11 | 3.35 ± 0.092 | 2.6 ± 0.07
EKACQVLKYMLLSKIML [RPN6] | 1.76 ± 0.049 | 1.49 ± 0.048 | 1.13 ± 0.1 | 1.41 ± 0.031
EKAKEMIRLLGSESDDS [ECM29] | 2.51 ± 0.2 | 2.13 ± 0.11 | – | 1.53 ± 0.14
EKASGFEDSMQFKKLTH [PRP8] | 2.81 ± 0.085 | 3.12 ± 0.083 | 2.99 ± 0.087 | 3.01 ± 0.084
EKCKEINVETVYDIMAL [BRR2] | 2.28 ± 0.059 | 2.44 ± 0.049 | 2.57 ± 0.07 | 2.5 ± 0.046
EKGNAKMIDFATLSKLK [SIR3] | 3.15 ± 0.074 | 3.08 ± 0.057 | 3.33 ± 0.037 | 3.24 ± 0.035
EKINRMIIFLKNYDATD [CSI1] | 2.52 ± 0.045 | 2.34 ± 0.044 | 2.38 ± 0.046 | 2.26 ± 0.028
EKITQISLLCKNFKGIE [PCI8] | 2.41 ± 0.049 | 2.55 ± 0.039 | 2.7 ± 0.037 | 2.5 ± 0.035
EKKPAAKKTSTSTDGKK [HTB1] | 3.33 ± 0.21 | 3.07 ± 0.11 | 2.85 ± 0.18 | 3.65 ± 0.25
EKLTSKSLDEQLLLLSD [LRP1] | 3.16 ± 0.077 | 3.44 ± 0.065 | 2.94 ± 0.038 | 3.31 ± 0.036
EKNDQNNDDDDNSVEQG [MCD1] | – | 3.15 ± 0.22 | – | –
EKQHENAVLELGTVQRE [SMC3] | – | 3.54 ± 0.26 | – | –
EKTYTKAPKIQRLVTPQ [RPS6A] | 2.62 ± 0.056 | 2.43 ± 0.055 | 2.11 ± 0.064 | 2.22 ± 0.037
EKVFNAYPAAREQFLNA [FAS1] | 3.16 ± 0.084 | 3.19 ± 0.094 | 3.1 ± 0.077 | 3.22 ± 0.053
ELAGDEELEAEQIDVFS [PRP8] | 3.43 ± 0.079 | 3.27 ± 0.13 | 3.08 ± 0.12 | 2.82 ± 0.13
ELDSKTRKILEILNECH [MED4] | 3.21 ± 0.074 | 3.22 ± 0.06 | 3.27 ± 0.037 | 3.21 ± 0.043
